Measurements from article PMC6894070, “The Plasmodium falciparum Hsp70-x chaperone assists the heat stress response of the malaria parasite” (The FASEB Journal, 2019).

How the values were obtained:
[1] = biological target: Plasmodium falciparum Hsp70-x (PfHsp70-x), full-length construct aa 25-679 (P. falciparum, UniProt K7NTP5 25-679); experiment: cell-based or functional assay
[2] = biological target: T1, human heat shock cognate protein 70 (Hsc70), full length (human, UniProt P11142 1-646); experiment: NMR titration; 15N-labelled PFA0660wJ titrated with unlabelled chaperone; HSQC peak intensity changes; 25°C; 20 mM sodium phosphate pH 7.4, 150 mM NaCl, 2 mM DTT; conditions: both partners purified
T1 construct: also called HSPA8; heat shock protein family A (hspa) member 8
T1 sequence (P11142 whole entry): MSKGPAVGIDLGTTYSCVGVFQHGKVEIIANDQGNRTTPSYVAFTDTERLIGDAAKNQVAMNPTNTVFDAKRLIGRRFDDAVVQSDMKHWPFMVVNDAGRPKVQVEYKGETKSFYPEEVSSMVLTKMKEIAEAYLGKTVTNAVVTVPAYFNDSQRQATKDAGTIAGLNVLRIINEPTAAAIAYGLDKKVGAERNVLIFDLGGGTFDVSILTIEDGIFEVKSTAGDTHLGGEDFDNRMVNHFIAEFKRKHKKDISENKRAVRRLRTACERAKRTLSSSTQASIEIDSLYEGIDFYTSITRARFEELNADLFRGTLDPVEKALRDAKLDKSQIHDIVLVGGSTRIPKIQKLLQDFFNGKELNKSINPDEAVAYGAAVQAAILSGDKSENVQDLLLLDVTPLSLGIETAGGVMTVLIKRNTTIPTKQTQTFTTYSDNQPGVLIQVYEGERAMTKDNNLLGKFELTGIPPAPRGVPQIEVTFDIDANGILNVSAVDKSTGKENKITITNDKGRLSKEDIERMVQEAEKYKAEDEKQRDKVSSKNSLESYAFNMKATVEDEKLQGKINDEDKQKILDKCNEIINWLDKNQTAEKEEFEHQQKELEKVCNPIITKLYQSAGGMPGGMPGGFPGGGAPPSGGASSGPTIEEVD

B1: J-domain of P. falciparum Hsp40 cochaperone PFA0660w (PFA0660wJ), aa 81-148 (domain or fragment, UniProt Q8I2E1 81-148, looked up)
chain: MDYYTLLGVDKGCSEDDLRRAYLKLAMKWHPDKHVNKGSKVEAEEKFKNICEAYSVLSDNEKRVKYDL
notes: PFA0660w, P. falciparum, pf3d7_0113700, UniProt Q8I2E1, J-domain aa 81-148; codon-optimized synthetic DNA; 15N-labelled (or 13C,15N-labelled) in the NMR assays; unlabelled in the ATP hydrolysis assays; also called PFA0660w J-domain; not shown: His6, N-terminal, cleaved
In the case of B1, the “fold change in ATP hydrolysis activity of PfHsp70-x upon titration of the J-domain (5 μM chaperone)” value [1] is reported as ~2 fold and the binding result [2] is reported as “binds”.
